# Laboratory results: patent publication US20090053198A1 (published 2009)
# B1: PSGL-1 (P-selectin glycoprotein ligand-1) of G-CSF mobilized leukocytes (ligand, human, UniProt Q14242 42-412, looked up)
# chain: QATEYEYLDYDFLPETEPPEMLRNSTDTTPLTGPGTPESTTVEPAARRSTGLDAGGAVTELTTELANMGNLSTDSAAMEIQTTQPAATEAQTTQPVPTEAQTTPLAATEAQTTRLTATEAQTTPLAATEAQTTPPAATEAQTTQPTGLEAQTTAPAAMEAQTTAPAAMEAQTTPPAAMEAQTTQTTAMEAQTTAPEATEAQTTQPTATEAQTTPLAAMEALSTEPSATEALSMEPTTKRGLFIPFSVSSVTHKGIPMAASNLSVNYPVGAPDHISVKQCLLAILILALVATIFFVCTVVLAVRLSRKGHMYPVRNYSPTEMVCISSLLPDGGEGPSATANGGLSKAKSPGLTPEPREDREGDDLTLHSFLP
# modifications: sialofucosylated (HECA-452-reactive) glycans; positions not given
# notes: Native glycoprotein from donor cells; seen as ˜220 kDa dimer and ˜130 kDa monomer on blots; also called ˜220 kDa band (dimer); ˜130 kDa band (monomer)
# Biological target: T1, human E-selectin on CHO-E cells (human, UniProt P16581 22-610)
# T1 construct: whole, on cells
# T1 sequence (looked up): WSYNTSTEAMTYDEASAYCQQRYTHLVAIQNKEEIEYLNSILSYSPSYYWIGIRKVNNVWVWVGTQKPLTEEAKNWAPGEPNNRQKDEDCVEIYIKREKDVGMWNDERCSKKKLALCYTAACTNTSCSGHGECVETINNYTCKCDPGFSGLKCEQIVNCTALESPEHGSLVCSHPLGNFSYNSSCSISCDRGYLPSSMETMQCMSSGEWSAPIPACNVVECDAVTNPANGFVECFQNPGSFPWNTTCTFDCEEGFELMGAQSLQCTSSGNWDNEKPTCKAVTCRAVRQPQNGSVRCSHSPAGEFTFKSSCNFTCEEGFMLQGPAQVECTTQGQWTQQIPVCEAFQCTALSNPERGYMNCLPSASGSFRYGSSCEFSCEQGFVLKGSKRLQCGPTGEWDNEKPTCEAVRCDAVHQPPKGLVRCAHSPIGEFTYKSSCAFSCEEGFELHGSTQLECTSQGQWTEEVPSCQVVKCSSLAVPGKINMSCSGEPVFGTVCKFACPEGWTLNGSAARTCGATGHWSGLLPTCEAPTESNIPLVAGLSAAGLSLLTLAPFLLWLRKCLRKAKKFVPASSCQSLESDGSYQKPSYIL
# Test: blot rolling assay: CHO-E perfused at 0.6 dyne/cm^2 over blotted ML-M membrane glycoproteins (˜130 kDa band)
# Text: Blot rolling assays: The blot rolling assay has been described previously²⁹. CHO-E were washed in PBS, and resuspended to 2×10⁶ cells/ml in assay buffer/10% glycerol. […] These blots were then placed in the parallel plate flow chamber, and CHO-E were perfused into the chamber at a shear stress of 0.6 dyne/cm²; an adjustment in the volumetric flow rate was made to account for the increase in viscosity due to the presence of 10% glycerol in the assay buffer. Molecular weight standards (SeeBlue® Plus2 prestained molecular weight standard; Invitrogen Corporation; Carlsbad, Calif.) were co-electrophoresed on adjacent lanes and served as a guide to aid placement of the flow chamber over the stained bands of interest. The number of tethering and rolling CHO-E was tabulated as function of the molecular weight region and compiled into an adhesion histogram. Negative controls were prepared by adding 10 mM EDTA to the assay buffer to chelate Ca²⁺ required for binding or treating CHO-E with anti E-selectin mAb, 68-5411, at 4° C. for 15 min. prior to use in adhesion assays.
# For these experiments, we could not assess binding interactions over the entire lane due to the length restriction of the flow chamber; because the differences in HECA-reactivity in proteins from ML and NL clustered within mobilities encompassing 30 kDa-170 kDa, we set the field view over this range. […]
binder,measurement,value
B1,binding result,binds
